Assay results: PMC10333884, “Large‐scale phosphomimetic screening identifies phospho‐modulated motif‐based protein interactions” (Molecular Systems Biology, 2023)
Each block holds one binder with its values, some of them ahead of it.

Key:
RANBP2 RanBD4 (human) = assay: fluorescence polarisation; displacement of a FITC-labelled probe peptide (5 nM in the measurement) from the protein domain (1-2 fold over the probe's KD) by a dilution series of unlabelled peptide; room temperature; 50 mM sodium phosphate pH 7.4; KD calculated from the displacement curve; for KPNA4 ARM one probe for each pocket
MAP1LC3A (human) = assay: FP; settings: modification not given
[1] = biological target: SNX27 PDZ (human), Q96L92; assay: FP; settings: modification not given
[2] = biological target: T1, TSG101 UEV (human), Q99816; assay: FP; settings: modification not given
T1 chain: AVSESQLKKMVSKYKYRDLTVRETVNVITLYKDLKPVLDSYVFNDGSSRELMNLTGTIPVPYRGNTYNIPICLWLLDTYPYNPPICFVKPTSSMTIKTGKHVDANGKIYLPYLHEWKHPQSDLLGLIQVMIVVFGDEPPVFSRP

GGA1 VHS (human), Q9UJY5 = biological target: T2, GGA1 VHS (human), Q9UJY5; assay: fluorescence polarisation; displacement of a FITC-labelled probe peptide (5 nM in the measurement) from the protein domain (1-2 fold over the probe's KD) by a dilution series of unlabelled peptide; room temperature; 50 mM sodium phosphate pH 7.4; KD calculated from the displacement curve; for KPNA4 ARM one probe for each pocket
T2 chain: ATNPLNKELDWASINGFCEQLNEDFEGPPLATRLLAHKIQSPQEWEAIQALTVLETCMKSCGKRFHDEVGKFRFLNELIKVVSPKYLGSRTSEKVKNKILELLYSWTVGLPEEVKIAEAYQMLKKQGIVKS

Binder: KYSDDTPLPEPSYKYN (modifications not checked) [DHX38_(260–275), phosphomimetic (E), Q92620 260-275]
- Kd (RANBP2 RanBD4 (human)): 470 µM

Binder: GMVSETSFNGG [DAXX E]
- IC50 [1]: 117 µM

Binder: NGCSSPTAPLSPMSP [GJA1 pS]
- IC50 [2]: 420 µM

Binder: NGCSSPTAPLEPMSP [GJA1 E]
- IC50 [2]: 232 µM

Binder: ETYYLSDEPLLGPPVG (modifications not checked) [GTSE1_(145–160), phosphomimetic (E), Q9NYZ3 145-160]
- Kd (GGA1 VHS (human), Q9UJY5): 199 µM

Binder: GMVSSTSFNGG [DAXX pS]
- IC50 [1]: 427 µM

Further lines, results first:

- IC50 (MAP1LC3A (human)): 60 µM
Binder: QNLSRSWHDVQVSSAY [TPD52L2 pS]

- IC50 (MAP1LC3A (human)): 223 µM
Binder: QNLSREWHDVQVSSAY [TPD52L2 E]

- IC50 [2]: 34 µM
Binder: HSGNVTPTAPPYLQES [TMEM55A pS]

- IC50 [2]: 37 µM
Binder: HSGNVEPTAPPYLQES [TMEM55A E]

- Kd (GGA1 VHS (human), Q9UJY5): 96 µM
Binder: INLFEKEKEMKKSPTS (modifications not checked) [GTSE1_(145–160), wild‐type, Q9NYZ3 145-160]

- Kd (GGA1 VHS (human), Q9UJY5): 450 µM
Binder: DLLESPDVGLLKLAS (modifications not checked) [JUN_(59–73), phosphomimetic (E), P05412 59-73]
